Results on three substances are retold here after publication PMC7456326.

pKd: −log10 of the molar value. Like-named read-outs stand apart in the source and are kept apart here.

Test [1] concerns the target Avi-Coh (E154C)-HIS labelled with maleimide-Cy3b, smFRET construct (R. champanellensis). Nature of the test: FRET or BRET; single-molecule FRET in solution on a confocal microscope; labelled Coh (Cy3b) and XMod-Doc (AF647) mixed 1:1 at 1 uM, 1 min, diluted to 200 pM; 50 mM Tris pH 8, 100 mM NaCl, 1 mM CaCl2, Trolox, 1% glucose. (In general: Bioluminescence resonance energy transfer reports proximity on the nanometre scale.)

Test [2] deals with Coh (lacking ELP linker and ddFLN4 domains), ITC construct (R. champanellensis). Nature of the test: ITC; 126 uM XMod-Doc injected (27 x 10 uL) into 16.1 uM Coh in the cell; 25 °C; TBS-Ca buffer (25 mM Tris, 72 mM NaCl, 1 mM CaCl2, pH 7.2). In general terms: ITC needs no label: the signal is the heat of the interaction.
Test [3] concerns the target Coh-ddFLN4-ELP-HIS-ybbr, AFM construct (R. champanellensis). The test is described as follows: AFM single-molecule force spectroscopy (AFM-SMFS); Coh construct covalently on the cantilever tip by its C-terminal ybbR tag, XMod-Doc construct covalently on the cover glass by its N-terminal ybbR tag; 200 ms dwell; constant pulling speed 100, 400, 1600, 6400 nm/s (mutants at 400 nm/s); TBS-Ca buffer; k0 from Bell-Evans or Dudko-Hummer-Szabo fits.

The target is the same in test [4]. The test is described as above. The source holds these as a separate data set.

Consider “ybbr-XMod-Doc (WT, S199AzF)-HIS labelled with DBCO-AF647, smFRET construct (domain or fragment)”, for which, in test [1], the mean FRET efficiency, binding mode A came to 0.71 and the mean FRET efficiency, binding mode B stood at 0.34.
In the case of “XMod-Doc protein (lacking ELP linker and ddFLN4 domains), ITC construct (domain or fragment)”, in test [2], the negative-log Kd (pKd) was 9.00 and the stoichiometry N was found to be 1.
In the case of “ybbr-ELP-ddFLN4-XMod-Doc-HIS (wild type), AFM construct (domain or fragment)”, in test [3], the k0 (BE), pathway 1, high force rupture (XMod intact) came to 4.7e-08 s⁻¹; the k0 (BE), pathway 2, low force rupture after XMod unfold is 0.000743 s⁻¹; the k0 (BE), pathway 3, low force rupture (XMod intact) came out at 2.79e-05 s⁻¹; the k0 (DHS, υ = 0.5), pathway 1, high force rupture (XMod intact) was found to be 9.39e-05 s⁻¹. Also, in test [3], the k0 (DHS, υ = 0.5), pathway 2, low force rupture after XMod unfold was 0.0152 s⁻¹; the k0 (DHS, υ = 0.5), pathway 3, low force rupture (XMod intact) was 0.831 s⁻¹; the k0 (DHS, υ = 2/3), pathway 1, high force rupture (XMod intact) was 0.000157 s⁻¹; the k0 (DHS, υ = 2/3), pathway 2, low force rupture after XMod unfold was 0.101 s⁻¹. In test [3], this substance displayed a k0 (DHS, υ = 2/3), pathway 3, low force rupture (XMod intact) of 1.08 s⁻¹; a percentage of curves in pathway 3 (binding mode B), 400 nm/s of 19%; a percentage of curves in pathway 3 (binding mode B), all pulling speeds of 17 to 22%; a rupture force, pathway 1 (XMod intact) of 500 pN. In test [3], the rupture force, pathway 2 (after XMod unfolding) was 200 pN and the rupture force, pathway 3 (XMod intact) is 200 pN. The same substance had a rupture force, pathway 1 (XMod intact) in test [4] of 500 to 600 pN.

One may read the pKd as the negative decadic logarithm of the Kd, by convention in mol/L. Read a high pKd as a small Kd. A word on the stoichiometry N: it is a count of units in the complex or per binding partner.
